The record followed here is article PMC6795507 (Science Advances, 2019).

Series [1] concerns the target head fiber gp14 of phage P68 (Staphylococcus aureus phage P68). As to the kind of experiment: cryo-EM structure.
Series [2] addresses portal protein gp19 of phage P68 (Staphylococcus aureus phage P68). As to the kind of experiment: cryo-EM structure.
Series [3] addresses lower collar protein gp18 of phage P68 (Staphylococcus aureus phage P68). As to the kind of experiment: cryo-EM structure.
The target in series [4] is major capsid protein gp20 of phage P68 (Staphylococcus aureus phage P68). The series is described as follows: cryo-EM structure.
The target in series [5] is tail fiber gp17 of phage P68 (in the virion) (Staphylococcus aureus phage P68). As to the kind of experiment: cryo-EM structure.
The series “crystal structure” concerns the molecule itself. As to the kind of experiment: crystal structure.

Several values for one entry are separate records, joined by “and”; a condition that tells them apart may be missing. Identical values can stand only once.

What is called stoichiometry N is the number of molecules, sites or subunits per partner or assembly. Turning to “head fiber gp14 of phage P68 (natural protein)”, in series [1], the stoichiometry N was 3.
Molecule “inner core protein gp22 of phage P68 (natural protein)” registered a stoichiometry N in series [2] of 6.
In series [3], “lower collar protein gp18 of phage P68 (natural protein)” showed a stoichiometry N of 12.
As for “major capsid protein gp20 of phage P68 (natural protein)”, the stoichiometry N in series [4] was 5 and 6.
In turn, “portal protein gp19 of phage P68 (natural protein)” returned a stoichiometry N in series [2] of 12.
The molecule “tail fiber gp17 of phage P68 (in the virion) (natural protein)” showed a stoichiometry N in series [5] of 3.

B1: His-tagged tail fiber protein of phage P68 (recombinant) (natural protein)
chain: MAYNENDFKYFDDIRPFLDEIYKTRERYTPFYDDRADYNTNSKSYYDYISRLSKLIEVLARRIWDYDNELKKRFKNWDDLMKAFPEQAKDLFRGWLNDGTIDSIIHDEFKKYSAGLTSAFALFKVTEMKQMNDFKSEVKDLIKDIDRFVNGFELNELEPKFVMGFGGIRNAVNQSINIDKETNHMYSTQSDSQKPEGFWINKLTPSGDLISSMRIVQGGHGTTIGLERQSNGEMKIWLHHDGVAKLLQVAYKDNYVLDLEEAKGLTDYTPQSLLNKHTFTPLIDEANDKLILRFGDGTIQVRSRADVKNHIDNVEKEMTIDNSENNDNRWMQGIAVDGDDLYWLSGNSSVNSHVQIGKYSLTTGQKIYDYPFKLSYQDGINFPRDNFKEPEGICIYTNPKTKRKSLLLAMTNGGGGKRFHNLYGFFQLGEYEHFEALRARGSQNYKLTKDDGRALSIPDHIDDLNDLTQAGFYYIDGGTAEKLKNMPMNGSKRIIDAGCFINVYPTTQTLGTVQELTRFSTGRKMVKMVRGMTLDVFTLKWDYGLWTTIKTDAPYQEYLEASQYNNWIAYVTTAGEYYITGNQMELFRDAPEEIKKVGAWLRVSSGNAVGEVRQTLEANISEYKEFFSNVNAETKHREYGWVAKHQK
Regarding B1, the “stoichiometry N” value in “crystal structure” came to 3.
